The values below come from paper PMC9945957 (Proceedings of the National Academy of Sciences of the …, 2023).

First the molecules themselves.
B1: Shr^H2 M238A (domain or fragment)
chain: NLSLITKLSQEDGAILFPEIDRYSDNKQIKALTQQITKVTVNGTVYKDLISDSVKDTNGWVSNATGLHLGTKAFKDGENTIVISSKGFEDVTITVTKKDGQIHFVSAKQKQ
B2: human hemoglobin, heme-loaded (holo-Hb) (complex)
chain 1: not shown
chain 2: not shown

Assay [1] concerns the target B2. Put plainly: NMR titration.
Assay [2] has as its target T1, Shr^H1H2 (Shr residues S26 to Q285, both HIDs) (Streptococcus pyogenes, UniProt Q99YA0 26-285).
T1 sequence: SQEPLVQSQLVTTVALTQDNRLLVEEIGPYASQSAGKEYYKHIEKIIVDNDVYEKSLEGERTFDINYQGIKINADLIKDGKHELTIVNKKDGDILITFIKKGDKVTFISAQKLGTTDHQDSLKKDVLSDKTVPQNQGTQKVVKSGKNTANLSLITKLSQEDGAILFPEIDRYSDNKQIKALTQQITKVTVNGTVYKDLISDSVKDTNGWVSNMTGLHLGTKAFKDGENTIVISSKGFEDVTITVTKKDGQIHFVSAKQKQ
Put plainly: SEC-MALS + other: SEC-SAXS.

For the molecule B1, the binding result in assay [1] is listed as “binds”.
As to B2, in assay [2], the “stoichiometry N” value came out at 2 Shr^H1H2 per Hb tetramer.
